Measurements published in patent US7919104B2, “Functional epitopes of Streptococcus pneumoniae PsaA antigen and uses thereof” (priority 2005, dated 2011).
Values joined by “and” are separate entries in the source; they are usually repeats but may differ in a detail not shown here. Equal values may be shown once. No end group written: not given here.

What was measured:
Detroit 562 cells [1] = assay: Adherence of rPsaA- or peptide-coated fluospheres (beads) to Detroit 562 cells; format: cell-based, human; conditions: 3,100±500 fluospheres per well; 2 hour incubation
Method: (§1) Carboxylate-modified fluorospheres (Molecular Probes™, […]) coated with either recombinant PsaA (rPsaA) or PsaA synthetic peptide (P4) were evaluated for their adherence to Detroit 562 NP cells. Four different batches of PsaA beads were generated by varying the concentration of the protein solution used to coat the beads (0.9 mg/ml, 0.53 mg/ml, 5.3 μg/ml and 0.53 μg/ml). P4 and Glycine control beads were generated by using a peptide solution (0.9 mg/ml). Protein concentrations were confirmed by the Bradford test (Sigma). PsaA and peptide beads were compared at similar inocula (1640±210 beads per well) in adherence and adherence competition assays (measured as mean fluorescent units (FU±SE)).
Recombinant PsaA protein or synthetic peptides were covalently bound to carboxylate-modified FluoSpheres (Molecular Probes, Eugene, Oreg.) (505/515 nm range, yellow, 1 μm in diameter). […] The 2% fluosphere stock was vortexed for 2 minutes at full speed. A 250-μl aliquot was sonicated for 5 minutes to break clumps. The sonicated fluospheres were washed 3 times by centrifugation at 10,000 rpm for 10 minutes in 250 μl MES buffer, pH 6.0 (Molecular Probes). The negative charge in the carboxylate-modified fluospheres was activated by adding 50 μl of EDAC solution (100 mg/ml, Molecular Probes) to the washed fluospheres resuspended in 200 μl MES. The fluospheres were incubated for 30 minutes RT with gentle rotation. A 250-μl volume of rPsaA (1 mg/ml) or peptide (2 mg/ml) resuspended in MES buffer was added to each fluosphere pellet. Suboptimal concentrations of rPsaA (900, 530, 5.3 and 0.53 μg/ml) were also used to generate partially coated fluospheres. Peptides were dissolved as 1 mg in 50 μl of 10% acetic acid followed by addition of 450 μl of MES buffer, pH 6.0. The 500-μl fluosphere suspension was incubated in the dark over night at room temperature with horizontal rotation (150 rpm). The remaining reactive sites were blocked by addition of a 50-μl volume of 1 M solution of glycine, followed by a-30-minute incubation at room temperature with horizontal rotation. The fluosphere suspension was then washed with 500 μl PBS, 50 mM, pH 7.2-7.4 three times by centrifugation at 10,000 rpm for 10 minutes. The first supernatant of the first wash was saved for protein determinations using the microtiter microdilution method of Bradford (Bio-Rad Laboratories, Calif.). The labeled fluosphere pellet was resuspended in 500 μl of PBS, 50 mM, pH 7.2-7.4. Labeled fluospheres were stored in the dark in 100-μl aliquots at 4° C. for up to 4 months. The peptides were stored in powder form at 4° C. under Dryerite desiccant. The resuspended peptides were stored at 4° C. for 6 weeks and for long term storage at −70° C. Fluospheres were counted by limiting dilution using a fluorometer (FLX-600, BioTek) with 485/520 nm excitation/emission wavelength and comparison to a calibration curve previously generated against hemacytometer counts.
Confluent monolayers of Detroit 562 cells grown in 96-well tissue culture plates for 6 days were washed once with 130 μl/well of PBS buffer+0.5% BSA (Sigma cat #A2153, Fraction V purified by alcohol precipitation). The entire outer perimeter of the microtiter plate was not used for adherence assays due to edge effect and lack of confluent growth in these wells. An 80-μl volume per well of PBS buffer+1% BSA and 20 μl per well of diluted fluosphere suspension (to yield ˜3100±500 fluospheres in a 20-μl volume) were added to the washed monolayers. The diluted fluosphere suspension was sonicated for 3 minutes prior to addition to the center of the wells. […] The sides of the plates were then tapped gently to mix. […] Following incubation, plates were washed 5 times with 130 μL/well of PBS+0.5% BSA. The liquid was removed after each wash with a multi-channel aspirator (Costar) and moderate vacuum. The plate was allowed to dry before reading in the fluorometer (485/520 nm). […]

Detroit 562 cells [2] = assay: Competitive inhibition of adherence of rPsaA-coated fluospheres to Detroit 562 cells; format: cell-based, human; conditions: for inhibition of rPsaA-fluosphere adherence, heterologous competition: peptide 10 μg/well
Method: as §1
(§2) Homologous competitive inhibitions with 0.5 to 10 μg per well of rPsaA protein or 5 to 20 μg per well of each peptide were performed to determine the specificity of the adherence for rPsaA-coated fluospheres or for each of the three peptide-coated fluospheres. Heterologous competitive inhibitions with each peptide (10 μg per well) were performed to determine which peptide blocked the adherence of whole PsaA-coated fluospheres to the Detroit 562 cells. Absorption of PsaA-specific antibodies was performed by incubation (2 hours at ambient room temperature with rotation, 100 rpm) of 500 μl (1:8 dilution) of the serum 7051 with nitrocellulose strips (2.5×0.5 cm), previously impregnated with rPsaA protein (1.8 mg/ml) and allowed to dry at 37° C. for 1 hour. Strips were replaced every 2 hours for a total of 3 changes. All antibody absorptions were performed in PBS (10 mM, pH 7.2) supplemented with 1% (weight/volume) BSA as a non-specific blocker. Immunoglobulin G (IgG) concentrations (μg/ml) were measured as previously described (Tharpe, Romero-Steiner) after each absorption step to monitor the decline of anti-PsaA antibodies.

Detroit 562 cells [3] = assay: Homologous competitive inhibition of adherence of rPsaA- or peptide-coated fluospheres to Detroit 562 cells; format: cell-based, human
Method: as §1, §2

pneumococci = conditions: antibodies to the peptides; cited from earlier work
Pneumococci (Pnc) = assay: Rabbit immunization with MAP of P4: serum inhibition of adherence of Pneumococci to Detroit 562 cells (anti Pneumococcal activity); format: in vivo, Streptococcus pneumoniae
From the text: The MAPs consist of two arms, each consisting of SEQ ID NO:1 linked via lys or nle-lys to a resin.
Assessment of Serum Samples: • 1) Inhibition of adherence of P4 coated fluorescent beads to Detroit 562 cells (in vitro; tissue culture) to detect the presence of anti P4 antibodies in serum. • 2) Inhibition of adherence of PsaA coated fluorescent beads to Detroit 562 cells (in vitro; tissue culture) to detect the presence of anti PsaA antibodies in the serum. • 3) Inhibition of adherence of Pneumococci (Pnc) to Detroit 562 cells (in vitro; tissue culture) to detect the presence of anti Pnc antibodies in serum. Immunization with P4E—Analyses of Rabbit Sera for Anti P4 and Anti Pneumococcal (Pnc) Antibody: Animal 465

[4] = biological target: T1, P4 coated fluorescent beads (Streptococcus pneumoniae serotype 4, UniProt P0A4G2, D258K/D259R); assay: Rabbit immunization with MAP of P4: serum inhibition of adherence of P4 coated fluorescent beads to Detroit 562 cells (anti P4 activity); format: in vivo
T1 sequence (P0A4G2 251-278 D258K/D259R): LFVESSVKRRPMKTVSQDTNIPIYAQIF

[5] = homologous competitor 5.0 μg/well
[6] = homologous competitor 10 μg/well
[7] = homologous competitor 20 μg/well
[8] = rabbit serum 1:1000, Bleed # 1 (Day 28)
[9] = rabbit serum 1:1000, Bleed # 2 (Day 42)
[10] = rabbit serum 1:8000, Bleed # 1 (Day 28)
[11] = rabbit serum 1:8000, Bleed # 2 (Day 42)
[12] = rabbit serum 1:16000, Bleed # 2 (Day 42)
[13] = rabbit serum 1:32000, Bleed # 1 (Day 28)
[14] = rabbit serum 1:10, Bleed # 1 (Day 28)
[15] = rabbit serum 1:10, Bleed # 2 (Day 42)
[16] = rabbit serum 1:100, Bleed # 1 (Day 28)
[17] = rabbit serum 1:16000, Bleed # 1 (Day 28)
[18] = rabbit serum 1:32000, Bleed # 2 (Day 42)
[19] = rabbit serum 1:64000, Bleed # 1 (Day 28)
[20] = rabbit serum 1:64000, Bleed # 2 (Day 42)
[21] = rabbit serum 1:128000, Bleed # 1 (Day 28)
[22] = rabbit serum 1:128000, Bleed # 2 (Day 42)
[23] = rabbit serum 1:256000, Bleed # 1 (Day 28)
[24] = rabbit serum 1:256000, Bleed # 2 (Day 42)
[25] = rabbit serum 1:512000, Bleed # 1 (Day 28)
[26] = rabbit serum 1:512000, Bleed # 2 (Day 42)

Substance | mean adherence of coated fluospheres (mean FU±SE) (Detroit 562 cells [1]) | inhibition of rPsaA-fluosphere adherence, heterologous competition (Detroit 562 cells [2]) | percent reduction in adherence of homologous coated fluospheres (Detroit 562 cells [3]; [5]) | percent reduction in adherence of homologous coated fluospheres (Detroit 562 cells [3]; [6]) | percent reduction in adherence of homologous coated fluospheres (Detroit 562 cells [3]; [7]) | colonization in mice immunized with the peptides (pneumococci) | Anti Pneumococcal activity, % inhibition of adherence (% IA) (Pneumococci (Pnc); [8]) | Anti Pneumococcal activity, % inhibition of adherence (% IA) (Pneumococci (Pnc); [10]) | Anti Pneumococcal activity, % inhibition of adherence (% IA) (Pneumococci (Pnc); [11]) | Anti P4 activity, % inhibition of adherence (% IA) [4, 14] | Anti P4 activity, % inhibition of adherence (% IA) [4, 15] | Anti P4 activity, % inhibition of adherence (% IA) [4, 16] | Anti P4 activity, % inhibition of adherence (% IA) [4, 8] | Anti P4 activity, % inhibition of adherence (% IA) [4, 9] | Anti P4 activity, % inhibition of adherence (% IA) [4, 10] | Anti P4 activity, % inhibition of adherence (% IA) [4, 11] | Anti P4 activity, % inhibition of adherence (% IA) [4, 17] | Anti P4 activity, % inhibition of adherence (% IA) [4, 12] | Anti P4 activity, % inhibition of adherence (% IA) [4, 18] | Anti P4 activity, % inhibition of adherence (% IA) [4, 19] | other results
LVRRFVHRRPHVE-SQ (LVRRFVHRRPHVESQ) [P3, synthetic peptide identified by phage display, reference compound] | 9,780±228 FU | 75.2% | −7.3% | 5.2% | 44.2% | reduce colonization | – | – | – | – | – | – | – | – | – | – | – | – | – | – | enhancement of the binding of rPsaA fluospheres (Detroit 562 cells [2]; unsaturated fluospheres (530 μg/ml of rPsaA), data not shown): < 2.5 fold
P4E2: Multi Antigenic Peptide (MAP) of P4: two arms, each SEQ ID NO:1, linked via lys or nle-lys to a resin (chain 1 LFVESSVKRRPMKTVSQDTNIPIYAQIF; chain 2 LFVESSVKRRPMKTVSQDTNIPIYAQIF; not fully specified; also: MAP: two identical arms on a Lys or Nle-Lys core) | – | – | – | – | – | – | 22% and 23% | 19% and 21% | 22% and 16% | 50% and 56% | 74% and 75% | 0% | 0% | 4% and 1% | 0% | 1% and 2% | 0% | 0% | 0% | 0% | Anti Pneumococcal activity, % inhibition of adherence (% IA) (Pneumococci (Pnc); [9]): 33% and 20%; Anti Pneumococcal activity, % inhibition of adherence (% IA) (Pneumococci (Pnc); [12]): 18% and 12%; Anti Pneumococcal activity, % inhibition of adherence (% IA) (Pneumococci (Pnc); [13]): 0%; Anti P4 activity, % inhibition of adherence (% IA) ([4]; rabbit serum 1:100, Bleed # 2 (Day 42)): 0% and 3%; Anti P4 activity, % inhibition of adherence (% IA) [4, 13]: 0%; Anti P4 activity, % inhibition of adherence (% IA) [4, 20]: 2% and 4%; Anti P4 activity, % inhibition of adherence (% IA) [4, 21]: 0%; Anti P4 activity, % inhibition of adherence (% IA) [4, 22]: 4% and 0%; Anti P4 activity, % inhibition of adherence (% IA) [4, 23]: 0%; Anti P4 activity, % inhibition of adherence (% IA) [4, 24]: 4% and 5%; Anti P4 activity, % inhibition of adherence (% IA) [4, 25]: 0%; Anti P4 activity, % inhibition of adherence (% IA) [4, 26]: 0%
P4E: Multi Antigenic Peptide (MAP) of P4: two arms, each SEQ ID NO:1, linked via lys or nle-lys to a resin (chain 1 LFVESSVKRRPMKTVSQDTNIPIYAQIF; chain 2 LFVESSVKRRPMKTVSQDTNIPIYAQIF; also: MAP: two P4 arms on a Lys or Nle-Lys core) | – | – | – | – | – | – | 24% and 38% | 23% and 34% | 13% and 21% | 39% and 46% | 43% and 48% | 32% and 29% | 33% and 41% | 9% and 12% | 6% and 9% | 5% and 4% | 12% and 15% | 7% and 1% | 9% and 5% | 22% and 21% | Anti Pneumococcal activity, % inhibition of adherence (% IA) (Pneumococci (Pnc); [17]): 25% and 27%; Anti Pneumococcal activity, % inhibition of adherence (% IA) (Pneumococci (Pnc); [18]): 14% and 16%; Anti P4 activity, % inhibition of adherence (% IA) [4, 20]: 6% and 3%; Anti P4 activity, % inhibition of adherence (% IA) [4, 21]: 10% and 15%; Anti P4 activity, % inhibition of adherence (% IA) [4, 22]: 5% and 9%; Anti P4 activity, % inhibition of adherence (% IA) [4, 23]: 5% and 7%; Anti P4 activity, % inhibition of adherence (% IA) [4, 24]: 0% and 3%; Anti P4 activity, % inhibition of adherence (% IA) [4, 25]: 5% and 7%; Anti P4 activity, % inhibition of adherence (% IA) [4, 26]: 6% and 3%
RSYQHDLRAYGFWRL [P2, synthetic peptide identified by phage display, reference compound] | 17,195±1,044 FU | 62.2% | 43.1% | 20.5% | 0.8% | reduce colonization | – | – | – | – | – | – | – | – | – | – | – | – | – | – | –
TVSRVPWTAWAFHGY [P1, synthetic peptide identified by phage display, reference compound] | 52,684±4,354 FU | 88.1% | 50.2% | 60.9% | 34.1% | reduce colonization | – | – | – | – | – | – | – | – | – | – | – | – | – | – | –
